Measurements reported in US20120244161A1 (published 2012).

Biological target: T1, EpCAM on KatoIII cells (human, UniProt P16422 24-314)
T1 sequence (looked up): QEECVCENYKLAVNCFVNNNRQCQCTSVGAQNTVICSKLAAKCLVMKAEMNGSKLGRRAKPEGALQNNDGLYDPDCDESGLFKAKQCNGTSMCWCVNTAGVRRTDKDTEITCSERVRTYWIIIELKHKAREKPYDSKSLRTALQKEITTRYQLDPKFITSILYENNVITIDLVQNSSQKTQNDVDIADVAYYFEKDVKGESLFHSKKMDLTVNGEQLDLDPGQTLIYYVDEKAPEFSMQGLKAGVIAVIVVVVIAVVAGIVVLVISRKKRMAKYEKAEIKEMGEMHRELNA
Assay: cell-based or functional assay

EC50 of CD25 upregulation on CD4+ T lymphocytes, human PBMC with 0.2% KatoIII cells, 40 h, flow cytometry: 3.5 ng/mL | EC50 of CD25 upregulation on CD4+ T lymphocytes, human PBMC with 2% KatoIII cells, 40 h, flow cytometry: 2.35 ng/mL | EC50 of CD25 upregulation on CD4+ T lymphocytes, human PBMC with 10% KatoIII cells, 40 h, flow cytometry: 0.8 ng/mL | EC50 of CD25 upregulation on CD8+ T lymphocytes, human PBMC with 0.2% KatoIII cells, 40 h, flow cytometry: 5.98 ng/mL | EC50 of CD25 upregulation on CD8+ T lymphocytes, human PBMC with 2% KatoIII cells, 40 h, flow cytometry: 0.99 ng/mL | EC50 of CD25 upregulation on CD8+ T lymphocytes, human PBMC with 10% KatoIII cells, 40 h, flow cytometry: 0.26 ng/mL
B1: EpCAMxCD3 bispecific single chain antibody MT110 (bispecific antibody)
chain: ELVMTQSPSSLTVTAGEKVTMSCKSSQSLLNSGNQKNYLTWYQQKPGQPPKLLIYWASTRESGVPDRFTGSGSGTDFTLTISSVQAEDLAVYYCQNDYSYPLTFGAGTKLEIKGGGGSGGGGSGGGGSEVQLLEQSGAELVRPGTSVKISCKASGYAFTNYWLGWVKQRPGHGLEWIGDIFPGSGNIHYNEKFKGKATLTADKSSSTAYMQLSSLTFEDSAVYFCARLRNWDEPMDYWGQGTTVTVSSGGGGSDVQLVQSGAEVKKPGASVKVSCKASGYTFTRYTMHWVRQAPGQGLEWIGYINPSRGYTNYADSVKGRFTITTDKSTSTAYMELSSLRSEDTATYYCARYYDDHYCLDYWGQGTTVTVSSGEGTSTGSGGSGGSGGADDIVLTQSPATLSLSPGERATLSCRASQSVSYMNWYQQKPGKAPKRWIYDTSKVASGVPARFSGSGSGTDYSLTINSLEAEDAATYYCQQWSSNPLTFGGGTKVEIK
